One block for each binder: values may come before it.
What was measured:
[1] = molecular target: T1, Human C-type lectin domain family 5 member A (CLEC5A), endogenous on human monocytes and M0 macrophages (human, UniProt Q9NY25 1-188); assay: flow cytometry on human M0 macrophages, anti-human IgG PE
T1 construct: Endogenous CLEC5A on primary human monocytes and monocyte-derived M0 macrophages; also called MDL-1; M0 macrophages (CLEC5A+) cells
T1 sequence: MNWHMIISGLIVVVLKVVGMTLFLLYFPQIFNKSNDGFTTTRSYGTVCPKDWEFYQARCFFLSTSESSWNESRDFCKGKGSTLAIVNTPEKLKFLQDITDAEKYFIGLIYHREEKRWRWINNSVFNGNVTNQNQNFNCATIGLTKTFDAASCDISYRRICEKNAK
Description: About 50,000 M0 macrophages were incubated with serially diluted antibodies in FACS buffer (PBS+0.5% BSA) for 30 minutes on ice. […] For analysis, the mean fluorescence intensity (MFI of PE) of each antibody was determined and plotted using GraphPad Prism software (Version 9.4.1; GraphPad Software Inc.).

[2] = molecular target: T2, CD79b on Ramos cells and on endogenous B cells of human PBMCs (human, UniProt P40259 29-229); assay: cell-based or functional assay
T2 sequence (looked up): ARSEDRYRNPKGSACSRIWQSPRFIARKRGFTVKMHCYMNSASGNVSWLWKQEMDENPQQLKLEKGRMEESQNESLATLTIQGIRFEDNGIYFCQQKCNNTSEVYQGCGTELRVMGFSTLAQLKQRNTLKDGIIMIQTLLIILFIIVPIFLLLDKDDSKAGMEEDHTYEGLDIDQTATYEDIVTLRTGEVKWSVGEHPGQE

[3] = molecular target: T2, CD79b on Ramos cells and on endogenous …; assay: cell-based or functional assay; remark: listed apart in the source
[4] = molecular target: T2, CD79b on Ramos cells and on endogenous …; assay: cell-based or functional assay; remark: listed apart in the source
[5] = molecular target: T2, CD79b on Ramos cells and on endogenous …; assay: cell-based or functional assay; remark: listed apart in the source
[6] = molecular target: T2, CD79b on Ramos cells and on endogenous …; assay: cell-based or functional assay; remark: listed apart in the source
[7] = molecular target: T2, CD79b on Ramos cells and on endogenous …; assay: cell-based or functional assay; remark: listed apart in the source
[8] = molecular target: T3, Human CLEC5A His Tag protein (ACROBiosystems, Cat #: CLA-H5243) (human, UniProt Q9NY25 28-188, limits assumed); assay: ELISA, plate coated with human CLEC5A
T3 construct: Bought protein with a His tag; also called recombinant human CLEC5A protein
T3 sequence: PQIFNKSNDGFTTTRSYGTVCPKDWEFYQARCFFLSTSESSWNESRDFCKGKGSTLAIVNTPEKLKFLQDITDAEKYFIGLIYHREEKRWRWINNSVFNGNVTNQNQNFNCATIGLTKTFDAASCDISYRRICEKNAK
Description: Protein antigen was aspirated, and wells were washed 3 times with 400 μL of wash buffer (0.05% Tween® 20 in PBS) using a plate washer. Anti-CLEC5A antibodies were prepared as the primary antibody at 5 μg/mL and serially diluted 3-fold through 11 points (diluted concentrations) with reagent buffer (PBS+0.05% BSA). 100 μL of primary antibody was added to appropriate wells and incubated for 1 hour at room temperature. Primary antibody was aspirated, and wells were washed 3 times with 400 μL of wash buffer (0.05% Tween® 20 in PBS) using a plate washer. […] Secondary antibody was aspirated, and wells were washed 3 times with 400 μL of wash buffer (0.05% Tween® 20 in PBS) using a plate washer. […] 100 μL of Fisher 1N Sulfuric Acid (Cat #: SA212-2) stop solution was added to each well and the plate was read in a plate reader at 450 nm. For analysis, OD450 of each antibody was plotted using GraphPad Prism software (Version 9.4.1; GraphPad Software Inc.).

B2: CD79b/5C7 (1+1 B) Fc-optimized (bispecific antibody, human IgG1, kappa)
heavy 1: EQQLVETGGGLIQPGGSLRLSCAASGFTINIDYWISWVRQAPGKGLEWIGIIDPGDGTTYFAIWVSGRFTISFDNSKNTVYLQMNSLRAEDTAVYFCVREFSASAYQYDLWGPGTLVTVSSASTKGPSVFPLAPSSKSTSGGTAALGCLVKDYFPEPVTVSWNSGALTSGVHTFPAVLQSSGLYSLSSVVTVPSSSLGTQTYICNVNHKPSNTKVDKKVEPKSCDKTHTCPPCPAPELLAGPSVFLFPPKPKDTLMISRTPEVTCVVVDVSHEDPEVKFNWYVDGVEVHNAKTKPREEQYNSTYRVVSVLTVLHQDWLNGKEYKCKVSNKALPLPEEKTISKAKGQPREPQVYTLPPSRDELTKNQVSLSCAVKGFYPSDIAVEWESNGQPENNYKTTPPVLDSDGSFFLVSKLTVDKSRWQQGNVFSCSVMHEALHNHYTQKSLSLSPGK
heavy 2: DIQMTQSPSSLSASVGDRVTITCQASESVDRNNRLAWFQQKPGKPPKLLIYTTSTLASGVPSRFSGSGSGTDFTLTISSLQPEDVATYYCAGYRGAHTDGDAFGGGTKVEIKGGGGSGGGGSGGGGSGGGGSEQQLVESGGGLVKPGGSLRLSCAASGFSFSRSSYMCWVRQAPGKGLEWIGCLSVGDGHTYYASWAKGRFTISKDSAKNSVYLQMNSLRAEDTAVYFCARAPSYSGDGGHGYDLWGPGTLVTVSSDKTHTCPPCPAPELLAGPSVFLFPPKPKDTLMISRTPEVTCVVVDVSHEDPEVKFNWYVDGVEVHNAKTKPREEQYNSTYRVVSVLTVLHQDWLNGKEYKCKVSNKALPLPEEKTISKAKGQPREPQVYTLPPSRDELTKNQVSLWCLVKGFYPSDIAVEWESNGQPENNYKTTPPVLDSDGSFFLYSKLTVDKSRWQQGNVFSCSVMHEALHNHYTQKSLSLSPGK
light: ELVMTQSPATLSVSPGERATLSCRASEDIENYLAWYQQKPGQPPRLLIYRASTLSSGVPARFSGSGSGTEFTLTISSLQSEDFAVYYCQQGYRNSNVDNPFGGGTKVEIKRTVAAPSVFIFPPSDEQLKSGTASVVCLLNNFYPREAKVQWKVDNALQSGNSQESVTEQDSKDSTYSLSSTLTLSKADYEKHKVYACEVTHQGLSSPVTKSFNRGEC
IC50 (nM), Ramos cell killing by M1 macrophages, Donor 431 [2]: 0.006 nM | IC50 (nM), Ramos cell killing by PBMCs (test 2), Donor 431 [3]: 0.0253 nM | IC50 (nM), Ramos cell killing by M2 macrophages, Donor 431 [4]: 0.001 nM | IC50 (nM), Ramos cell killing by M0 macrophages, Donor 431 [5]: 0.003 nM | IC50 (nM), killing of endogenous B cells by PBMCs, Donor 367 [6]: 0.0253 nM | IC50 (nM), killing of endogenous B cells by PBMCs, Donor 431 [6]: 0.0253 nM | IC50 (nM), Ramos cell killing by PBMCs (test 3), Donor 281 [7]: 0.0123 nM | IC50 (nM), Ramos cell killing by PBMCs (test 3), Donor 367 [7]: 0.841 nM

B3: CD79b/5C7 (2+2 B) Fc-silenced (bispecific antibody, human IgG1, kappa, L234A L235A)
heavy: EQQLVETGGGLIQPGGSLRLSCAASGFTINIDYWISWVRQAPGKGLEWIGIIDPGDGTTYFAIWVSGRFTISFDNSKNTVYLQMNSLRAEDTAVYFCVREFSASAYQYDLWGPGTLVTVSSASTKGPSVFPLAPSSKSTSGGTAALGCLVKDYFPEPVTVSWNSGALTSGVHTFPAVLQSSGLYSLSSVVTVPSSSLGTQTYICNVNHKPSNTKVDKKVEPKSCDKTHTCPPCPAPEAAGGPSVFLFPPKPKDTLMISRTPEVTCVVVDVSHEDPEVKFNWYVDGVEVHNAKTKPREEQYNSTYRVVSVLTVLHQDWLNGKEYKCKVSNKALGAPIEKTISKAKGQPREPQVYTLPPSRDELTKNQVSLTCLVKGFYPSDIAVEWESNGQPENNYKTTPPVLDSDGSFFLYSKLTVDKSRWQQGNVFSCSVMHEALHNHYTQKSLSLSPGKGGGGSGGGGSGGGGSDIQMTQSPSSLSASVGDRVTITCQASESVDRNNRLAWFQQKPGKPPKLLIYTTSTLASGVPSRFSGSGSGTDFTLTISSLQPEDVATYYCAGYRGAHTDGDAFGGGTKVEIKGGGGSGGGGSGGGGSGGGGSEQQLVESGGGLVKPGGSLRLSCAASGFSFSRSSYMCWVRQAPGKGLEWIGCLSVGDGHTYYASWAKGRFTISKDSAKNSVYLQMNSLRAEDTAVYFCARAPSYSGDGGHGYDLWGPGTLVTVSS
light: ELVMTQSPATLSVSPGERATLSCRASEDIENYLAWYQQKPGQPPRLLIYRASTLSSGVPARFSGSGSGTEFTLTISSLQSEDFAVYYCQQGYRNSNVDNPFGGGTKVEIKRTVAAPSVFIFPPSDEQLKSGTASVVCLLNNFYPREAKVQWKVDNALQSGNSQESVTEQDSKDSTYSLSSTLTLSKADYEKHKVYACEVTHQGLSSPVTKSFNRGEC
IC50 (nM), Ramos cell killing by M1 macrophages, Donor 100 [2]: 0.0007 nM | IC50 (nM), Ramos cell killing by M1 macrophages, Donor 431 [2]: 0.0014 nM | IC50 (nM), Ramos cell killing by PBMCs (test 2), Donor 431 [3]: 0.0062 nM | IC50 (nM), Ramos cell killing by M2 macrophages, Donor 022 [4]: 0.001 nM | IC50 (nM), Ramos cell killing by M2 macrophages, Donor 100 [4]: 0.0004 nM | IC50 (nM), Ramos cell killing by M2 macrophages, Donor 233 [4]: 0.002 nM | IC50 (nM), Ramos cell killing by M2 macrophages, Donor 431 [4]: 0.0009 nM | IC50 (nM), Ramos cell killing by M0 macrophages, Donor 022 [5]: 0.002 nM | IC50 (nM), Ramos cell killing by M0 macrophages, Donor 100 [5]: 0.0008 nM | IC50 (nM), Ramos cell killing by M0 macrophages, Donor 159 [5]: 0.001 nM | IC50 (nM), Ramos cell killing by M0 macrophages, Donor 161 [5]: 0.0008 nM | IC50 (nM), Ramos cell killing by M0 macrophages, Donor 233 [5]: 0.002 nM | IC50 (nM), killing of endogenous B cells by PBMCs, Donor 023 [6]: 0.0231 nM | IC50 (nM), killing of endogenous B cells by PBMCs, Donor 367 [6]: 0.00617 nM | IC50 (nM), killing of endogenous B cells by PBMCs, Donor 431 [6]: 0.00617 nM | IC50 (nM), Ramos cell killing by PBMCs (test 3), Donor 022 [7]: 0.131 nM | IC50 (nM), Ramos cell killing by PBMCs (test 3), Donor 281 [7]: 0.043 nM | IC50 (nM), Ramos cell killing by PBMCs (test 3), Donor 367 [7]: 0.0643 nM

B4: 6G9, chimeric rabbit/human IgG1 anti-CLEC5A antibody (Fc-silenced) (antibody, V domains shown)
VH: QSLEESGGDLVKPGASLTLTCTASGFSFTSNKYMCWVRQAPGKGPEWIACIYVGDGNTYYASWAKGRFTISKTSSTTVTLQMTSLTVADTATYFCARGGDYSIGGGGFASNLWGPGTLVTVSS
VL: AFELTQTPSSVEAAVGGTVTINCQASESISNFLAWYRQKPGQPPKLLIYRASTLASGVSSRFKGSGSGTEFTLTISDLEPADGASYYCQSYYGTSSTGHNVFGGGTEVVVK
notes: also called ch6G9
EC50 [1]: 6840 pM

Further binders by falling EC50 [1], results first:

EC50 [1]: 2800 pM
B5: DX244, reference anti-CLEC5A antibody (antibody, human IgG1, V domains shown)
VH: QIQLVQSGPELKKPGETVKISCKASGYTFTIYAMNWVKQAPGKGLEWMGWINTDTGEPTYADDFKGRFAFSLETSASTAYLQINNLKNEDMATYFCARSSEVFYDYRFDYWGQGTALTVSS
VL: DIQMTQSPSSLSASLGERVSLTCRASQDIGSSLNWLQQEPDGTIKRLIYATSNLDSGVPKRFSGSRSGSDYSLTISSLESEDFVHYYCLQYASSPFTFGSGTKLEIKR
notes: also called benchmark DX244

EC50 [8]: 610 pM | EC50 [1]: 2570 pM
B6: 13E6, chimeric rabbit/human IgG1 anti-CLEC5A antibody (Fc-silenced) (antibody, V domains shown)
VH: QSLEESGGDLVKPGGTLTLTCTASGFSFSSSYWLCWVRQAPGKGLEWIACIYGGSSRGTYYASWAKGRFTISKTSSTTVTLQMTSLTAADTATYFCASHTYTYPRFSPYFNLWGPGTLVSVSS
VL: AFEMTQTPASVSPAVGGTVSINCQASEDIESSLAWYQQKPGQPPKLLIYDASDLESGVPSRFKGSGSGTEYTLTISGVQPADAATYFCQSAYYTGSADNTFGGGTEVVVK
notes: also called ch13E6

EC50 [8]: 160 pM | EC50 [1]: 2060 pM
B7: 7G10, chimeric rabbit/human IgG1 anti-CLEC5A antibody (Fc-silenced) (antibody, V domains shown)
VH: QQQLEESGGGLVKPGGTLTLTCKASGFSFSSGYDMCWVRQAPGKGLEWIACIYGGRSDNVYYARWAKGRFTISKTSSTTVTLQMTSLTAADTATYFCARDYLYRGYIGGGYGRSNLWGPGTLVTVSS
VL: DVVMTQTPASVSAAVGGTVTINCRASEDIENCLAWYQQKPGQPPKLLIYQASKLPSGVPSRFSGSGSGTEYTLTISDLEPDDGATYYCQNPDYMRNTDNLFGGGTEVVVK
notes: also called ch7G10

EC50 [1]: 1590 pM
B1: 9E11, chimeric rabbit/human IgG1 anti-CLEC5A antibody (Fc-silenced) (antibody, V domains shown)
VH: QSLEESGGGLVQPEGSLTLTCTASGFDLNNYYYMCWVRQAPGKGLEWIACTHAGSSSSSYYARWAKGRFTISKTSSTTVTLQMTSLTAADTATYFCARHDRDYDDMDLWGPGTLVTVSS
VL: NIVMTQTTSPVSAVVGGTITINCQASQSIEYGYLSWYQQKPGQPPKLLIFYASKLASGVPSRFSGSGSGTQFTLTISGVQPDDAATYFCLYGYFDDYSGAAFGGGTEVVVK
notes: also called ch9E11
